Results: patent publication US8173771B2, “Humanin receptor or humanin-like polypeptide receptor” (Keio Univeristy, priority 2005, dated 2012)

Assays:
[1] = system: primary cortical neurons (PCNs); experiment: Aβ neurotoxicity in primary cortical neurons, WST-8 / Calcein / LDH; type: cell-based, mouse
Description: B) PCNs were incubated with 25 μM Aβ (upper) in the presence of 10 μg of recombinant soluble human gp130 (lower “+”) or BSA (lower “−”). Cell viability was determined by WST-8 assay (upper) or Calcein fluorescence assay (lower) at 72 hr after the onset of treatment with Aβ.
C) PCNs were incubated with 25 μM Aβ (1-43) in the presence of 1 μg of neutralizing anti-mouse gp130 antibody (RX435) or control IgG. Cell viability and cell mortality were determined by Calcein fluorescence (left panel) and LDH assays (right panel), respectively, at 72 hr after the onset of treatment with Aβ (1-43).
[…] At 72 hr after incubation, the cells were harvested for WST-8 assays or/and Calcein fluorescence assays to show cell viability.
B) The soluble IL-6 receptor-α (sIL-6R) or the soluble CNTF-R (100 ng/ml) were added to the cells as in the above A), followed by the stimulation with its ligand, IL-6 or CNTF (100 ng/ml), respectively to show the effects on the neuronal cell death due to Aβ. The right and left graphs show the cell viabilities determined by WST-8 assays and Calcein fluorescence assays, respectively.
C) The neutralizing antibodies (1 μg) for the mouse gp130, mouse LIFR, mouse IL-11R and rat CNTF-R were added as in the above A), and cell viability was determined by Calcein fluorescence assays after 72 hours.
WST-8 assay was performed at 72 hrs after the treatment.
The primary culture of mouse cortical neurons was prepared as described previously (Sudo et al., 2000). Briefly, primary cortical neurons, obtained from embryonic day 14 (E14) ICR mice were seeded in poly-L-lysine-coated 96 well plates (Sumitomo Bakelite) at 2.5 or 5.0×10^4 cells/well in Neuron Medium (Sumitomo Bakelite) (Hashimoto et al., 2003; Niikura et al., 2004). Purity of neurons by this method was >98%. After 3 days, the culture medium was replaced with DMEM with N2 supplement. On the fourth day in vitro, 25 μM of Aβ (1-42) was added in association with indicated concentrations of HN or cytokines in the presence or the absence of soluble cytokine receptors or neutralizing antibodies. At 72 hrs after the onset of treatment, cell viability was assessed by WST-8 assay and/or Calcein fluorescence assay and cell mortality was assessed by the Trypan blue exclusion assay and LDH assay (Hashimoto et al, 2000, 2001 a b, 2003).

STAT3 = experiment: Immunoblot of phosphotyrosine 705 of STAT3 in F11 cells; type: cell-based; conditions: F11 cells, 15 min
Description: E) F11 cells were transfected with an indicated amount of pRNA-U6.1/Shuttle vector (empty), pRNA-U6.1/Shuttle-IL-6R siRNA, or pRNA-U6.1/Shuttle-LIFR siRNA. At 48 hrs after transfection, the cells were treated with 100 ng/ml IL-6, 100 ng/ml CNTF or 1 μM HNG at 37° for 15 min, and harvested. The results of immunoblot analysis using anti-phophoSTAT3 ([…]) antibody and anti-STAT3 antibody were shown in photos. A) F11 cells were added with an indicated amount of HN, HNG or HNA and harvested 15 min later for immunoblot analysis with antibodies recognizing phosphotyrosine 705 of STAT3 or STAT3. The results are shown in photos. B) F11 cells were transfected with 0.5 μg of pRNA-U1.6/Shuttle vector, pRNA-U6.1/Shuttle-WSX-1 siRNA, pRNA-U6.1/Shuttle-CNTF-R siRNA, both pRNA-U6.1/Shuttle-WSX-1 siRNA and pRNA-U6.1/Shuttle-CNTF-R siRNA (0.5 μg each), or pRNA-U6.1/Shuttle-FPR2 siRNA. The total amount of vectors was adjusted to be 1.0 μg by including a backbone vector. […] The results are shown in photos. Cell lysates (10-20 μg/lane) or pulled-down precipitates were subject to SDS-PAGE, and the proteins separated on the gel were transferred onto polyvinylidene difluoride membranes as described (Hashimoto et al, 2000). Visualization of the immunoreactive protein bands was performed by ECL (Amersham Pharmacia Biotech, Uppsala, Sweden).

B1: CNTF: ciliary neurotrophic factor, recombinant cytokine (protein, UniProt P26441 1-200, looked up)
Ciliary neurotrophic factor: MAFTEHSPLTPHRRDLCSRSIWLARKIRSDLTALTESYVKHQGLNKNINLDSADGMPVASTDQWSELTEAERLQENLQAYRTFHVLLARLLEDQQVHFTPTEGDFHQAIHTLLLQVAAFAYQIEELMILLEYKIPRNEADGMPINVGDGGLFEKKLWGLKVLQELSQWTVRSIHDLRFISSHQTGIPARGSHYIANNKKM
effect on the HN effect ([1]; PCN, 10 nM HNG, 10 μM Aβ (1-43)): inhibited the HN effect | mimicry of HN in neuroprotection against neuronal cell death by Aβ ([1]; cytokine 100 ng/ml with its soluble receptor (sIL-6R or soluble CNTF receptor) 100 ng/ml): did not mimic HN | inhibition of neurotoxicity by Aβ ([1]; cytokine alone, physiological levels (up to 100 ng/ml), 25 μM Aβ): did not inhibit | phosphorylation of tyrosine 705 of STAT3 (STAT3): increased
